Assay results reported in patent US20240133870A1, “COMBINED TREATMENT FOR CANCER” (Yeda Research and Development Co. Ltd., priority 2021, published 2024).

Experiments:
Type in all cases: cell-based, human
[1] = system: GFP-labeled cancer cell lines; assay: Effect of secreted factors on proliferation under DMSO (pScore); details: DMSO control experiments
Description: FIGS. 8A-D show schematic overviews of rScore and bScore calculation. Calculation of rScore and bScore is derived from the data points A, B, C, D marked on GFP-level curves of cells under different treatment conditions, as shown in FIGS. 8A-B. As all cells used in the screen are constitutively expressing GFP, GFP level was used as a proxy for the number of cells. […] Proliferation score (pScore) describes the percent of change in the number of cells after seven days of treatment with a given factor. Rescue score (rScore) quantifies the effect of a given factor on the resistance to a given drug. Relative rescue describes the proportion of cells treated with drug+factor out of untreated cells. The higher this ratio, the stronger effect the factor has on drug resistance. Residual drug growth describes the proportion of cells growth under drug relative to no treatment condition. […] Finally, the rescue score (rScore) is the relative rescue after adding a penalty for drugs with low efficacy. […] Bliss Score (bScore) quantifies the extent of synergism between a given factor and a given drug. Factor effect describes the proportion (or probability) of cells killed by the factor. Drug effect describes the proportion (or probability) of cells killed by the drug. The observed killing effect (observed effect) describes the proportion (or probability) of cells killed by both factor and drug. Assuming drug killing and factor killing are independent events, the expected killing effect (expected effect) is the sum of probabilities D and F excluding events intersection (D*F), which represents a subpopulation of cells that may be sensitive to both the drug and factor. Finally, bliss score (bScore) is the delta between observed and expected killing multiplied by −1 to symbolize the expected decrease in the number of cancer cells following the addition of a factor. […] Upper panel—effect on cells proliferation. […] The number of experiments (out of 79) with pro-proliferative effect (pScore>30%) and anti-proliferative effect (pScore<−30%) were counted for each factor in the secretome library. […]

[2] = system: BRAF (V600E) melanoma cell lines; assay: High-throughput secretome screen of GFP-labeled cells (rScore, bScore, ranks); details: melanoma cell lines bearing BRAF (V600E); BRAF/MEK inhibitors
Method: (§1) Cell lines—All cell lines (Table 1 hereinbelow) were cultured in DMEM supplemented with 100 units/ml Penicillin and Streptomycin, 2 μmM Glutamine, 1 μmM Pyruvate and 10% FCS, and maintained in a humidified incubator at 37° C. and 5% CO2. Cells were routinely tested for Mycoplasma contamination by PCR. To generate stable cell lines constitutively expressing GFP, cells were infected with lentivirus bearing plasmid pLEX_TRC206 and sorted by FACS to enrich for GFP positive population. For the in-vitro experiments, human cancer cell lines which constitutively expressed GFP were treated with various cytotoxic and targeted drugs (see Table 1 hereinbelow); and the effect of different secreted factors (Table 2 hereinbelow) on the innate resistance to a drug based on the cells' GFP level was determined.
(§2) High throughput in-vitro screens—For high-throughput screens or drug dose curves, cells were counted by Vi-Cell XR (Beckman coulter). Cells were seeded on 384 wells plates (Corning, 3712) using the EL406 washer dispenser (BioTek). Liquid handling of medium and drugs was effected by CyBi (WellFlex vario, CyBio). GFP fluorescence of cells was measured at 477/517 nm (excitation/emission) using Cytation3 (BioTek). Due to fluorescence reading bias at plate margins and corners, these margins were discarded for analysis.
High-throughput secretome screens—To screen for the effect of secreted factors on the response of cell lines to different drugs, the following seven-days procedure was performed. On day 0, GFP expressing cells were seeded at 1500-2000 cells per well on 384-wells plates (Corning, 3712), depending on the cell line's proliferation rate. Each plate was seeded with one cell line. At day 1, each plate was treated with the secretome library (Table 2 hereinabove), one well per factor. Immediately afterwards, each plate was treated either with a drug (Table 1 hereinabove) at the EC90 concentration or with DMSO control. The CyBi liquid handler was used to treat each plate with a drug and the secretome library as well as to replace the medium, drug and secreted factors following 3 days of incubation (day 4). Cell fluorescence was read at days 1, 4 and 7 by Cytation3, and for some of the experiments at day 6 as well. Wells of interest were imaged at day 7 using the Operetta (PerkinElmer).
(2) Based on observations, the plate area spanning rows 4-13 and columns 4-21 was hardly affected by plate margins biases. This area is referred to herein as plate core. To control for row specific and column specific biases, plate outliers (Zscore>4 or Zscore<−4) and edges were masked. Next, to capture row and column (col) biases for the i-th row and the j-th column, the bias factor was calculated:
Upon QC completion, 199 experiment plates and 79 control (DMSO) plates were left for further analysis. • 4—Scoring methods-A GFP value for wells without secretome factors was obtained by averaging over the plate internal control wells. Those wells contained the solvents used in the secretome library. pScore: The effect of the secreted factors on proliferation under DMSO was evaluated using pScore (proliferation score). Values were given in percent units.
rScore: The effect of the secreted factors on resistance to anti-cancer drugs was evaluated using rScore (rescue score). rScore was assigned to a given factor under two conditions: • 1. drug effect was >30% (residual drug growth<0.7) • 2. proliferation ratio between factor treated and untreated cells in the presence of drug was higher than one:
rSscore=S−S*residual drug growth
Based on manual inspection of the rScore distribution across the data, the threshold for a potential effect on drug resistance was set to 0.2 (FIGS. 8A-D).
(*) Negative values were considered as zero. […] Groups with less than 4 experiments were discarded, finally resulting in 13 groups of experiments (FIG. 1E). […]

[3] = system: BRAF (V600E) colorectal cancer cell lines; assay: High-throughput secretome screen of GFP-labeled cells (rScore); details: colorectal cell lines bearing BRAF (V600E); BRAF/MEK inhibitors
Method: as §1, §2
High-throughput secretome screens—To screen for the effect of secreted factors on the response of cell lines to different drugs, the following seven-days procedure was performed. On day 0, GFP expressing cells were seeded at 1500-2000 cells per well on 384-wells plates (Corning, 3712), depending on the cell line's proliferation rate. Each plate was seeded with one cell line. […] Cell fluorescence was read at days 1, 4 and 7 by Cytation3, and for some of the experiments at day 6 as well. […]
(2) Based on observations, the plate area spanning rows 4-13 and columns 4-21 was hardly affected by plate margins biases. […] Next, to capture row and column (col) biases for the i-th row and the j-th column, the bias factor was calculated: […]

pERK in G361 cell line = assay: In-cell western blot of pERK; details: G361 cells treated with the BRAF inhibitor (vemurafenib 2 μM and trametinib 1 nM)
Method: PLX4720—BRAFi, 2 μM; PD184352—MEKi, 1 μM, EMAPII—50 ng/ml. P-value of the difference between GFP(drug)/GFP(no-treatment) and GFP(drug+EMAPII)/GFP(no-treatment), at day 7, was calculated by two-sided t-test. ** p<0.01, *** p<0.001. Average rScore (+/−SE) was calculated from at least four different experiments. […] A total of 69 experiments are shown. […] The effect of FGF2 (10 ng/ml), EMAPII (10 ng/ml) or AIMP1 (10 ng/ml) on G361 μmelanoma cells treated with vemurafenib (2 μM) was measured with or without the FGFR inhibitor PD17307 (0.5 μM). Data represent an average of 4 to 8 experiments. P-value was calculated by two-sided t-test. *** p<0.001. Error bars represent standard error. […] P-values were calculated by two-sided t-test relative to luciferase. * p<0.05, Q-value=0.1. […] P-value was calculated by two-sided t-test. *** p<0.001.
In-cell western blot—To validate that EMAPII mediates its effect on resistance to BRAF inhibition via the FGF receptors (FIG. 2G), the melanoma BRAF mutated cell line G361 was seeded in a 384-wells plate at a concentration of 16,000 cells per well. […] Finally, the plate was scanned with Odyssey (Li-cor) using microplate settings (169 μm, […]), and fluorescence intensity was quantified and normalized to the DRAQ level, and then to no drug control (DMSO).

Row | Molecule | effect on proliferation (pScore) [1] | effect on drug resistance [3] | also measured
1 | insulin: pro-proliferative secreted factor | pro-proliferative |  | 
2 | neuregulin-1 | pro-proliferative |  | 
3 | FGF10: fibroblast growth factor 10, ligand of FGFR2IIIb (protein, UniProt O15520 38-208, looked up) Fibroblast growth factor 10: QALGQDMVSPEATNSSSSSFSSPSSAGRHVRSYNHLQGDVRWRKLFSFTKYFLKIEKNGKVSGTKKENCPYSILEITSVEIGVVAVKAINSNYYLAMNKKGKLYGSKEFNNDCKLKERIEENGYNTYASFNWQHNGRQMYVALNGKGAPRRGQKTRRKNTSAHFLPMVVHS |  | could confer drug resistance to colorectal cancers | effect on drug resistance [2]: much smaller effect on melanoma cell lines
4 | interferon gamma: anti-proliferative secreted factor (protein, UniProt P01579 24-161, looked up) Interferon gamma: QDPYVKEAENLKKYFNAGHSDVADNGTLFLGILKNWKEESDRKIMQSQIVSFYFKLFKNFKDDQSIQKSVETIKEDMNVKFFNSNKKKRDDFEKLTNYSVTDLNVQRKAIHELIQVMAELSPAAKTGKRKRSQMLFRG | anti-proliferative |  | 
5 | AIMP1: aminoacyl tRNA synthetase complex interacting multifunctional protein 1 (protein, UniProt Q12904 2-312, looked up) Aminoacyl tRNA synthase …: ANNDAVLKRLEQKGAEADQIIEYLKQQVSLLKEKAILQATLREEKKLRVENAKLKKEIEELKQELIQAEIQNGVKQIPFPSGTPLHANSMVSENVIQSTAVTTVSSGTKEQIKGGTGDEKKAKEKIEKKGEKKEKKQQSIAGSADSKPIDVSRLDLRIGCIITARKHPDADSLYVEEVDVGEIAPRTVVSGLVNHVPLEQMQNRMVILLCNLKPAKMRGVLSQAMVMCASSPEKIEILAPPNGSVPGDRITFDAFPGEPDKELNPKKKIWEQIQPDLHTNDECVATYKGVPFEVKGKGVCRAQTMSNSGIK |  |  | pERK reactivation (pERK in G361 cell line): partially reactivate pERK
6 | FGF7: fibroblast growth factor 7, ligand of FGFR2IIIb (protein, UniProt P21781 32-194, looked up) Fibroblast growth factor 7: CNDMTPEQMATNVNCSSPERHTRSYDYMEGGDIRVRRLFCRTQWYLRIDKRGKVKGTQEMKNNYNIMEIRTVAVGIVAIKGVESEFYLAMNKEGKLYAKKECNEDCNFKELILENHYNTYASAKWTHNGGEMFVALNQKGIPVRGKKTKKEQKTAHFLPMAIT |  | could confer drug resistance to colorectal cancers | effect on drug resistance [2]: much smaller effect on melanoma cell lines
7 | BTC: EGFR ligand beta-cellulin (protein, UniProt P35070 32-111, looked up) Betacellulin: DGNSTRSPETNGLLCGDPEENCAATTTQSKRKGHFSRCPKQYKHYCIKGRCRFVVAEQTPSCVCDEGYIGARCERVDLFY |  | mediate resistance only to the colorectal cell lines | 
